Data published in paper PMC4528719, “Functional role of dimerization and CP190 interacting domains of CTCF protein in Drosophila melanogaster” (BMC Biology, 2015).
Blank lines part the entries; values can stand above or below the molecule they belong to.

Tests used:
[1] = biological target: T1, thioredoxin-tagged CP190-BTB (Drosophila); assay: cross-linking; CP190-BTB constant at 20 μM, alone or mixed with CTCF-CTD at stated molar ratios, 2 h (legend of Fig. 4b: 1 h) at room temperature, then glutaraldehyde; buffer B; SDS-PAGE, Coomassie or silver staining
T1 sequence (Q24478 whole entry, looked up): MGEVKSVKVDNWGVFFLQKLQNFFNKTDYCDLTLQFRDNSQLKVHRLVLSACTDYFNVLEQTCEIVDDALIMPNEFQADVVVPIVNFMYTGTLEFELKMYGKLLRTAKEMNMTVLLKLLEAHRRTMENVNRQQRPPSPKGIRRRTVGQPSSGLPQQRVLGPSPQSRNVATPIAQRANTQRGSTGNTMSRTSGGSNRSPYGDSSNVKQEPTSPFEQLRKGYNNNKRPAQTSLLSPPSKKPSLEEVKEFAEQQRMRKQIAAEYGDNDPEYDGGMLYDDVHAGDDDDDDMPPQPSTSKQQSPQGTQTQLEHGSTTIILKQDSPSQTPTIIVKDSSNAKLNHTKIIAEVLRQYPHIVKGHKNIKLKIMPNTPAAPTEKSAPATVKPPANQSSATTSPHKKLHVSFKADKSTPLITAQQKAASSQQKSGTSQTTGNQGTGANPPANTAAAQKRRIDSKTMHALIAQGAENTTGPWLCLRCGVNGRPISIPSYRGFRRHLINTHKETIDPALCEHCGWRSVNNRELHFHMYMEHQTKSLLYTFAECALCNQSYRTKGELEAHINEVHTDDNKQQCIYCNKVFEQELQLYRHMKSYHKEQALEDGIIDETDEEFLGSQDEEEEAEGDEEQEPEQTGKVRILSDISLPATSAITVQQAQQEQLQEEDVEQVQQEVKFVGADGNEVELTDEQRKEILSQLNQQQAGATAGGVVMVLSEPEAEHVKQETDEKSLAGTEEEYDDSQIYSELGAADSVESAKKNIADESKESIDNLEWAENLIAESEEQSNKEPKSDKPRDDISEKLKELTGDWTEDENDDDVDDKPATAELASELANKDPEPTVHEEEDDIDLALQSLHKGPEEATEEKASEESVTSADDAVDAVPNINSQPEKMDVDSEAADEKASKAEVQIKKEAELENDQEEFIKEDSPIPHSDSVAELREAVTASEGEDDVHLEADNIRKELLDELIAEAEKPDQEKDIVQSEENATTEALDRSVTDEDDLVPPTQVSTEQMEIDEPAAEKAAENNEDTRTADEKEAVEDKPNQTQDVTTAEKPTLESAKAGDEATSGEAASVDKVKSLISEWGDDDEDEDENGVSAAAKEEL

[2] = biological target: the molecule itself; assay: cross-linking; one protein alone at 5 μM, increasing glutaraldehyde, 10 min at room temperature, 20 mM HEPES-KOH pH 7.7, 150 mM NaCl, 20 mM imidazole, 1 mM β-mercaptoethanol; SDS-PAGE, silver staining
[3] = biological target: T2, dCTCF–CTD 612–818 protein (Drosophila melanogaster, UniProt Q9VS55 612-818); assay: pull-down; GST–CP190 fragments on glutathione agarose, recombinant dCTCF-CTD in solution; 2 h room temperature, buffer C; washes with 500 mM NaCl (Fig. 3f); conditions: both partners purified
T2 construct: also called CTD protein; source: E. coli BL21, purified (Ni-NTA)
T2 sequence (looked up): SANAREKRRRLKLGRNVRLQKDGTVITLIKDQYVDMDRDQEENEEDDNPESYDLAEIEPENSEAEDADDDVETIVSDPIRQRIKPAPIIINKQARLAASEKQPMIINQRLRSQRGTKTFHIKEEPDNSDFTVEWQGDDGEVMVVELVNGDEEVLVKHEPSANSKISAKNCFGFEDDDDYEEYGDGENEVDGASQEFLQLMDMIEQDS

stoichiometry N [1]: 2
Molecule: thioredoxin-tagged CP190-BTB (domain or fragment)

stoichiometry N [1]: 2 BTB per CTD
B1: dCTCF–CTD 612–818 protein (domain or fragment)
chain: T2 sequence (looked up)

B2: dCTCF NTD 70–163 (domain or fragment, Drosophila melanogaster, UniProt Q9VS55 70-163, looked up)
chain: HAEEAEEEEEDDEDKYFIDDEGNCYIKTTPKKQKELQKKLKQAAAKPGKATRSVVSTATNKSINLRPAKSTPKATTSKPPPEPKAISVRPARAA
notes: dCTCF, Drosophila melanogaster, residues 70-163; source: E. coli BL21, purified (Ni-NTA)
binding result [2]: binds

binding result [3]: binds
B3: GST–CP190 BTB domain (1–126) (domain or fragment, Drosophila, UniProt Q24478 1-126, looked up)
chain: MGEVKSVKVDNWGVFFLQKLQNFFNKTDYCDLTLQFRDNSQLKVHRLVLSACTDYFNVLEQTCEIVDDALIMPNEFQADVVVPIVNFMYTGTLEFELKMYGKLLRTAKEMNMTVLLKLLEAHRRTM

B4: thioredoxin NTD 1–205 fusion protein of dCTCF (domain or fragment, Drosophila melanogaster, UniProt Q9VS55 1-205, looked up)
chain: MPRRTKKDEDPEDLQTFLNNFHKEIEGNSDEKVVNTILEAISAEAIDLDENGAEAGGSKPMEEAEADLDHAEEAEEEEEDDEDKYFIDDEGNCYIKTTPKKQKELQKKLKQAAAKPGKATRSVVSTATNKSINLRPAKSTPKATTSKPPPEPKAISVRPARAAAAKAKQSAMPPPPALVVKVPAPRGRPRKNPVIPKPEPMDLER
notes: pET32a(+) vector; purified on Ni-NTA, so a His tag is likely present; source: E. coli BL21, purified (Ni-NTA)
binding result [2]: binds

B5: thioredoxin-tagged dCTCF NTD 1–163 (domain or fragment, Drosophila melanogaster, UniProt Q9VS55 1-163, looked up)
chain: MPRRTKKDEDPEDLQTFLNNFHKEIEGNSDEKVVNTILEAISAEAIDLDENGAEAGGSKPMEEAEADLDHAEEAEEEEEDDEDKYFIDDEGNCYIKTTPKKQKELQKKLKQAAAKPGKATRSVVSTATNKSINLRPAKSTPKATTSKPPPEPKAISVRPARAA
notes: dCTCF, Drosophila melanogaster, residues 1-163; pET32a(+) vector; purified on Ni-NTA, so a His tag is likely present; source: E. coli BL21, purified (Ni-NTA)
stoichiometry N [2]: ~4

B6: dCTCF NTD 125–180 (domain or fragment, Drosophila melanogaster, UniProt Q9VS55 125-180, looked up)
chain: STATNKSINLRPAKSTPKATTSKPPPEPKAISVRPARAAAAKAKQSAMPPPPALVV
notes: dCTCF, Drosophila melanogaster, residues 125-180; source: E. coli BL21, purified (Ni-NTA)
binding result [2]: binds
